According to patent publication EP3088890B1 (Chugai Seiyaku Kabushiki Kaisha, dated 2020):

Columns and labels:
[1] = biological target: T1, AW5, C-terminally His-tagged recombinant product of positions 1 to 357 of GPC3 (human, UniProt P51654 25-357); test: Western blot analysis, CHO cell pellets
T1 construct: Expressed in CHO cells, cell pellets used in Western blot; The range is as printed and starts at position 1; also called AW5 (1-357); not shown: C-terminal His tag

[2] = biological target: T2, GPC3 peptide 321-350 (SEQ ID NO: 17) (human); test: peptide ELISA, peptide on plate, antibody at 2 µg/mL
T2 construct: Synthetic 30-residue peptide of GPC3
T2 peptide: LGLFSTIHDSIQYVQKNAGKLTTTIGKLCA

[3] = biological target: T3, AW2, C-terminally His-tagged recombinant product of positions 1 to 196 of GPC3 (human, UniProt P51654 25-196); test: Western blot, pellets of CHO cells expressing the product
T3 construct: Expressed in CHO cells, cell pellets used in Western blot; The range is as printed and starts at position 1; also called AW2 (1-196); not shown: C-terminal His tag

[4] = biological target: T4, AW3, C-terminally His-tagged recombinant product of positions 1 to 218 of GPC3 (human, UniProt P51654 25-218); test: as above
T4 construct: Expressed in CHO cells, cell pellets used in Western blot; The range is as printed and starts at position 1; not shown: C-terminal His tag

[5] = biological target: GPC3 core (sGPC3-His) protein (human) (UniProt P51654); test: ELISA on plate-bound sGPC3; biotin-labeled GT30, no unlabeled antibody
[6] = biological target: GPC3 core (sGPC3-His) protein (human) (UniProt P51654); test: competition ELISA on plate-bound sGPC3; unlabeled GT30 (100-fold) against competitor biotin-labeled GT114
[7] = biological target: GPC3 core (sGPC3-His) protein (human) (UniProt P51654); test: competition ELISA on plate-bound sGPC3; unlabeled GT30 (100-fold) against competitor biotin-labeled GT165
[8] = biological target: GPC3 core (sGPC3-His) protein (human) (UniProt P51654); test: competition ELISA on plate-bound sGPC3; unlabeled GT30 (100-fold) against competitor biotin-labeled GT607
[9] = biological target: GPC3 core (sGPC3-His) protein (human) (UniProt P51654); test: competition ELISA on plate-bound sGPC3; unlabeled GT30 (100-fold) inhibits competitor biotin-labeled GT30
[10] = biological target: GPC3 core (sGPC3-His) protein (human) (UniProt P51654); test: competition ELISA on plate-bound sGPC3; unlabeled GT30 (100-fold) against competitor biotin-labeled GT30; signal of the labeled antibody
[11] = biological target: GPC3 core (sGPC3-His) protein (human) (UniProt P51654); test: competition ELISA on plate-bound sGPC3; unlabeled GT30 (100-fold) against competitor biotin-labeled GT114; signal of the labeled antibody
[12] = biological target: GPC3 core (sGPC3-His) protein (human) (UniProt P51654); test: competition ELISA on plate-bound sGPC3; unlabeled GT30 (100-fold) against competitor biotin-labeled GT165; signal of the labeled antibody
[13] = biological target: GPC3 core (sGPC3-His) protein (human) (UniProt P51654); test: competition ELISA on plate-bound sGPC3; unlabeled GT30 (100-fold) against competitor biotin-labeled GT607; signal of the labeled antibody

Chain of GPC3 core (sGPC3-His) protein (human) (P51654 25-563 S495A/S509A): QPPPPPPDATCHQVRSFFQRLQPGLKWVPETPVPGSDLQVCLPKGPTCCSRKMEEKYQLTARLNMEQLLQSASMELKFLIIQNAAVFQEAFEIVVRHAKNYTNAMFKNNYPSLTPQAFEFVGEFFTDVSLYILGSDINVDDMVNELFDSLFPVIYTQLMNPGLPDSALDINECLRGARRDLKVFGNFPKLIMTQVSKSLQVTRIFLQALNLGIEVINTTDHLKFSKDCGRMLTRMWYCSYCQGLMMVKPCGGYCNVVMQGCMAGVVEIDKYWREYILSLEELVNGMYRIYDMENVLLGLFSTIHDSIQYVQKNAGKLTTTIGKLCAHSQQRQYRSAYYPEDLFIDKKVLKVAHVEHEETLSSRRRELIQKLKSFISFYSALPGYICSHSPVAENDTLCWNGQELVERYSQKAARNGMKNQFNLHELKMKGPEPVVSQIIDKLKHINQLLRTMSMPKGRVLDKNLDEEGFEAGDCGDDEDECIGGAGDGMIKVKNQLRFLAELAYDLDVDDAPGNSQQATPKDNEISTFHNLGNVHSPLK
T4 sequence (P51654 25-218): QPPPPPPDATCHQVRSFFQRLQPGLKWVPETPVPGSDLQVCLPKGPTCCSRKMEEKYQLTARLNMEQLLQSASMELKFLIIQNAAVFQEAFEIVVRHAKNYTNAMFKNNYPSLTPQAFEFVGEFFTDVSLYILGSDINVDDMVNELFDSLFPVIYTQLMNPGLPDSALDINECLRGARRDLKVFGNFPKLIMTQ
T1 sequence (P51654 25-357): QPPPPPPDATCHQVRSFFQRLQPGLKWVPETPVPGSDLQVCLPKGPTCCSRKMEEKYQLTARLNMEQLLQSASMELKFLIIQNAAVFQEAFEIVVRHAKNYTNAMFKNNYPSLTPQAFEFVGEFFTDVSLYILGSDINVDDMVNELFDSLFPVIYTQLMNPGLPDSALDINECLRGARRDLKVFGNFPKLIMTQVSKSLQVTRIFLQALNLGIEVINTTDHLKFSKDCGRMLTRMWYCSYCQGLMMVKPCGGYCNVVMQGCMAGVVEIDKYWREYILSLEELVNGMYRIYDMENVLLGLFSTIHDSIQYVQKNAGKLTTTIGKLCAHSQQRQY
T3 sequence (P51654 25-196): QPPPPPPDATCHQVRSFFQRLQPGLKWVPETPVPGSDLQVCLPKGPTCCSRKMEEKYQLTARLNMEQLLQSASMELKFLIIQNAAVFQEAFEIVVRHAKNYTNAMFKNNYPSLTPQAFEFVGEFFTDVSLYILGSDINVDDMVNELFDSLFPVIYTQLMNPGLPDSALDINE

B1: GT30 antibody (antibody, IgG1, V domains shown)
VH: QVQLQQSGAELARPGASVKLSCRASGYTFTSYGISWMMQRTGQGLEWIGEIYPRSGITYYNEKFKGKATLTADKSSSTAYMQLSSLTSEDSAVYFCARDVSDGYLFPYWGQGTLVTVSA
VL: DIQMTQSPASLSASVGETVTITCRTSENIYSYLAWYQQKQGKSPQLLVYNAKTLPEGVPSRFSGSGSGTQFSLKINSLQPEDFGSYYCQHHYGTPPTFGGGTKLEIKR
binding result [1]: binds | binding result [2]: binds | binding result [3]: no binding | binding result [4]: no binding | O.D. 450 [5]: 1.84 O.D. 450 | Inhibitory effect (%) [6]: < 0% | Inhibitory effect (%) [7]: 94% | Inhibitory effect (%) [8]: 3% | Inhibitory effect (%) [9]: 96% | O.D. 450 [10]: 0.07 O.D. 450 | O.D. 450 [11]: 2.31 O.D. 450 | O.D. 450 [12]: 0.098 O.D. 450 | O.D. 450 [13]: 2.12 O.D. 450
